For this experiment, the target named is T1, wild-type Mtd (major tropism determinant), Mtd-GST fusion protein (Bordetella bronchiseptica bacteriophage), Q775D6.
T1 chain: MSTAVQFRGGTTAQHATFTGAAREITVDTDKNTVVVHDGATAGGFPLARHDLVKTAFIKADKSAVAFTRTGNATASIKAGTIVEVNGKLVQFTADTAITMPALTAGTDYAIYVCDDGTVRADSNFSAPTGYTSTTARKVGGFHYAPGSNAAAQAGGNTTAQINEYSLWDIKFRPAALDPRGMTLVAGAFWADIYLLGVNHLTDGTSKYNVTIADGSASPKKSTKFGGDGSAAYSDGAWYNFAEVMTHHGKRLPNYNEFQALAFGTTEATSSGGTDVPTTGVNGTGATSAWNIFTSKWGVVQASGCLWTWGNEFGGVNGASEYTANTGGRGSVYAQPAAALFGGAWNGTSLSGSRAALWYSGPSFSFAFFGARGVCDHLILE
Nature of the experiment: SEC; size exclusion chromatography of purified Mtd-GST fusion proteins after dialysis into PBS. To be noted: remark: other sources report otherwise. (In general: SEC sorts molecules by how far they enter the pores of the column.)

Stoichiometry N data for 1 molecule are collected here from article PMC3567102.

By stoichiometry N is commonly meant a count of units in the complex or per binding partner.

B1: wild-type Mtd (major tropism determinant), Mtd-GST fusion protein, Q775D6 1-381 (natural protein)
chain: MSTAVQFRGGTTAQHATFTGAAREITVDTDKNTVVVHDGATAGGFPLARHDLVKTAFIKADKSAVAFTRTGNATASIKAGTIVEVNGKLVQFTADTAITMPALTAGTDYAIYVCDDGTVRADSNFSAPTGYTSTTARKVGGFHYAPGSNAAAQAGGNTTAQINEYSLWDIKFRPAALDPRGMTLVAGAFWADIYLLGVNHLTDGTSKYNVTIADGSASPKKSTKFGGDGSAAYSDGAWYNFAEVMTHHGKRLPNYNEFQALAFGTTEATSSGGTDVPTTGVNGTGATSAWNIFTSKWGVVQASGCLWTWGNEFGGVNGASEYTANTGGRGSVYAQPAAALFGGAWNGTSLSGSRAALWYSGPSFSFAFFGARGVCDHLILE
The molecule B1 returned a stoichiometry N of 6.
